For five proteins, kapp ratio vs G399V/G714K (B1) and activity relative to G399V/G714K (B1) results are on record in US20120237496.

Series [1] deals with T1, Peptide-13 (not fully specified).
T1 chain: CRPPGFSPFRK

Series [2] deals with Peptide-2.
Series [3] deals with T2, Peptide-3.
T2 chain: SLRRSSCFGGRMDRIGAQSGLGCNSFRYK

The target in series [4] is T3, Peptide-6b.
T3 chain: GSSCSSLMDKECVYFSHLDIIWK

The target of series [5] is T4, Peptide-6a.
T4 chain: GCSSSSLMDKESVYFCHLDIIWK

The target in series [6] is Peptide-4.
Series [7] has as its target T5, Peptide-5 (not fully specified).
T5 chain: CDRVYIHPFHLK

Series [8] deals with T6, Peptide-8 (not fully specified).
T6 chain: CQLYENKPRRPYILK

For series [9], the target named is Peptide-7.
For series [10], the target named is Peptide-1.

B1: C8 (protein)
chain: YPYDVPDYAYPYDVPDYAYPYDVPDYAGSYDDGICKSSDCIKSAARLIQNMDATTEPCTDFFKYACGGWLKRNVIPETSSRYGNFDILRDELEVVLKDVLQEPKTEDIVAVQKAKALYRSCINESAIDSRGGEPLLKLLPDIYGWPVATENWEQKYGASWTAEKAIAQLNSKYGKKVLINLFVGTDDKNSVNHVIHIDQPRLGLPRGDYYECTGIYKEACTAYVDFMISVARLIRQEERLPIDENQLALEMNKVMELEKEIANATAKPEDRNDPMLLYNKMTLAQIQNNFSLEINGKPFSWLNFTNEIMSTVNISITNEEDVVVYAPEYLTKLKPILTKYSARDLQNLMSWRFIMDLVSSLSRTYKESRNAFRKALYVTTSETATWRRCANYVNGNMENAVGRLYVEAAFAGESKHVVEDLIAQIREVFIQTLDDLTWMDAETKKRAEEKALAIKERIGYPDDIVSNDNKLNNEYLELNYKEDEYFENIIQNLKFSQSKQLKKLREKVDKDEWISGAAVVNAFYSSGRNQIVFPAGILQPPFFSAQQSNSLNYGGIGMVIGHEITHGFFDNGRNFNKDWDLVDWWTQQSASNFKEQSQCMVYQYGNFSWDLAGGQHLNGINTLGENIADNGGLGQAYRAYQNYIKKNGEEKLLPGLDLNHKQLFFLNFAQVWCGTYRPEYAVNSIKTDVHSPKNFRIIGTLQNSAEFSEAFHCRKNSYMNPEKKCRVW
As to B1, the kapp ratio vs G399V/G714K (B1) worked out at 0.43 fold in series [1]; 1.64 fold in [2]; 0.24 fold in series [3]; 0.24 fold in series [4]; 0.32 fold in series [5]; 1.17 fold in [6]. Besides, the kapp ratio vs G399V/G714K (B1) in series [7] turned out to be 0.27 fold; in [8] it was 0.36 fold; in series [9], 0.69 fold; in series [10], 1.86 fold.

B2: C11 (protein)
chain: YPYDVPDYAYPYDVPDYAYPYDVPDYAGSYDDGICKSSDCIKSAARLIQNMDATTEPCTDFFKYACGGWLKRNVIPETSSRYGNFDILRDELEVVLKDVLQEPKTEDIVAVQKAKALYRSCINESAIDSRGGEPLLKLLPDIYGWPVATENWEQKYGASWTAEKAIAQLNSKYGKKVLINLFVGTDDKNSVNHVIHIDQPRLGLPRRDYYECTGIYKEACTAYVDLMISVARLIRQEERLPIDENQLALEMNKVMELEKEIANATAKPEDRNDPMLLYNKMTLAQIQNNFSLEINGKPFSWLNFTNEIMSTVNISITNEEDVVVYAPEYLTKLKPILTKYSARDLQNLMSWRFIMDLVSSLSRTYKESRNAFRKALYVTTSETATWRRCANYVNGNMMNAVGRLYVEAAFAGESKHVVEDLIAQIREVFIQTLDDLTWMDAETKKRAEEKALAIKERIGYPDDIVSNDNKLNNEYLELNYKEDEYFENIIQNLKFSQSKQLKKLREKVDKDEWISGAAVVNAFYSSGRNQIVFPAGILQPPFFSAQQSNSLNYGGIGMVIGHEITHGFMDNGRNPNKDWDLVDWWTQQSASNFKEQSQCMVYQYGNFSWDLAGGQHLNGINTLGENIADNGGLGQAYRAYQNYIKKNGEEKLLPGLDLNHKQLFFLNFAQVWCGTYRPEYAVNSIKTDVHSPKNFRIIGTLQNSAEFSEAFHCRKNSYMNPEKKCRVW
For B2, the kapp ratio vs G399V/G714K (B1) in [1] was determined as 0.61 fold; in series [2] it was 2.14 fold; in series [3] it was 0.24 fold; in series [4], 0.11 fold; in series [5], 0.28 fold; in series [6], 0.49 fold. In addition, the kapp ratio vs G399V/G714K (B1) was 0.19 fold in series [7], 0.35 fold in series [8], 0.66 fold in series [9] and 2.19 fold in series [10].

B3: C10 (protein)
chain: YPYDVPDYAYPYDVPDYAYPYDVPDYAGSYDDGICKSSDCIKSAARLIQNMDATTEPCTDFFKYACGGWLKRNVIPETSSRYGNFDILRDELEVVLKDVLQEPKTEDIVAVQKAKALYRSCINESAIDSRGGEPLLKLLPDIYGWPVATENWEQKYGASWTAEKAIAQLNSKYGKKVLINLFVGTDDKNSVNHVIHIDQPRLGLPRRDYYECTGIYKEACTAYVDLMISVARLIRQEERLPIDENQLALEMNKVMELEKEIANATAKPEDRNDPMLLYNKMTLAQIQNNFSLEINGKPFSWLNFTNEIMSTVNISITNEEDVVVYAPEYLTKLKPILTKYSARDLQNLMSWRFIMDLVSSLSRTYKESRNAFRKALYVTTSETATWRRCANYVNGNMMNAVGRLYVEAAFAGESKHVVEDLIAQIREVFIQTLDDLTWMDAETKKRAEEKALAIKERIGYPDDIVSNDNKLNNEYLELNYKEDEYFENIIQNLKFSQSKQLKKLREKVDKDEWISGAAVVNAFYSSGRNQIVFPAGILQPPFFSAQQSNSLNYGGIGMVIGHEITHGFMDNVRNPNKDDDLVDWWTQQSASNFKEQSQCMVYQYGNFSWDLAGGQHLNGINTLGENIADNGGLGQAYRAYQNYIKKNGEEKLLPGLDLNHKQLFFLNFAQVWCGTYRPEYAVNSIKTDVHSPKNFRIIGTLQNSAEFSEAFHCRKNSYMNPEKKCRVW
For the protein B3, the kapp ratio vs G399V/G714K (B1) in [1] stood at 0.68 fold; in [2] it was 2.6 fold; in [3], 0.24 fold; in series [4], 0.19 fold; in [5] it was 0.27 fold; in [6] it was 0.8 fold. Moreover, the kapp ratio vs G399V/G714K (B1) in [7] is 0.17 fold; in series [8], 0.34 fold; in series [9] it was 0.49 fold; in [10], 2.35 fold. Besides, the activity relative to G399V/G714K (B1) in [2] was 2.39 fold; in series [5], 0.28 fold; in series [6], 0.83 fold; in [7], 0.08 fold; in series [9], 0.68 fold; in [10] it was 2.05 fold.

B4: C12 (protein)
chain: YPYDVPDYAYPYDVPDYAYPYDVPDYAGSYDDGICKSSDCIKSAARLIQNMDATTEPCTDFFKYACGGWLKRNVIPETSSRYGNFDILRDELEVVLKDVLQEPKTEDIVAVQKAKALYRSCINESAIDSRGGEPLLKLLPDIYGWPVATENWEQKYGASWTAEKAIAQLNSKYGKKVLINLFVGTDDKNSVNHVIHIDQPRLGLPRRDYYECTGIYKEACTAYVDLMISVARLIRQEERLPIDENQLALEMNKVMELEKEIANATAKPEDRNDPMLLYNKMTLAQIQNNFSLEINGKPFSWLNFTNEIMSTVNISITNEEDVVVYAPEYLTKLKPILTKYSARDLQNLMSWRFIMDLVSSLSRTYKESRNAFRKALYVTTSETATWRRCANYVNGNMENAVGRLYVEAAFAGESKHVVEDLIAQIREVFIQTLDDLTWMDAETKKRAEEKALAIKERIGYPDDIVSNDNKLNNEYLELNYKEDEYFENIIQNLKFSQSKQLKKLREKVDKDEWISGAAVVNAFYSSGRNQIVFPAGILQPPFFSAQQSNSLNYGGIGMVIGHEITHGFMDNGRNFNKDVDLVDWWTQQSASNFKEQSQCMVYQYGNFSWDLAGGQHLNGINTLGENIADNGGLGQAYRAYQNYIKKNGEEKLLPGLDLNHKQLFFLNFAQVWCGTYRPEYAVNSIKTDVHSPKNFRIIGTLQNSAEFSEAFHCRKNSYMNPEKKCRVW
In the case of B4, the kapp ratio vs G399V/G714K (B1) in series [1] came out at 0.83 fold; in series [2], 2.04 fold; in series [3], 0.24 fold; in series [4], 0.18 fold; in series [5], 0.32 fold; in [6], 0.79 fold. For the same protein, the kapp ratio vs G399V/G714K (B1) in [7] worked out at 0.26 fold; in series [8], 0.43 fold; in series [9], 0.84 fold; in [10], 2.11 fold.

B5: C9 (protein)
chain: YPYDVPDYAYPYDVPDYAYPYDVPDYAGSYDDGICKSSDCIKSAARLIQNMDATTEPCTDFFKYACGGWLKRNVIPETSSRYGNFDILRDELEVVLKDVLQEPKTEDIVAVQKAKALYRSCINESAIDSRGGEPLLKLLPDIYGWPVATENWEQKYGASWTAEKAIAQLNSKYGKKVLINLFVGTDDKNSVNHVIHIDQPRLGLPRGDYYECTGIYKEACTAYVDFMISVARLIRQEERLPIDENQLALEMNKVMELEKEIANATAKPEDRNDPMLLYNKMTLAQIQNNFSLEINGKPFSWLNFTNEIMSTVNISITNEEDVVVYAPEYLTKLKPILTKYSARDLQNLMSWRFIMDLVSSLSRTYKESRNAFRKALYVTTSETATWRRCANYVNGNMENAVGRLYVEAAFAGESKHVVEDLIAQIREVFIQTLDDLTWMDAETKKRAEEKALAIKERIGYPDDIVSNDNKLNNEYLELNYKEDEYFENIIQNLKFSQSKQLKKLREKVDKDEWISGAAVVNAFYSSGRNQIVFPAGILQPPFFSAQQSNSLNYGGIGMVIGHEITHGFMDNVRNFNKDLDLVDWWTQQSASNFKEQSQCMVYQYGNFSWDLAGGQHLNGINTLGENIADNGGLGQAYRAYQNYIKKNGEEKLLPGLDLNHKQLFFLNFAQVWCGTYRPEYAVNSIKTDVHSPKNFRIIGTLQNSAEFSEAFHCRKNSYMNPEKKCRVW
For the protein B5, the kapp ratio vs G399V/G714K (B1) in [1] was 0.52 fold; in series [2], 2.44 fold; in series [3], 0.24 fold; in series [4], 0.21 fold; in [5], 0.31 fold; in series [6], 0.67 fold. In addition, the kapp ratio vs G399V/G714K (B1) in [7] came to 0.22 fold; in [8], 0.46 fold; in series [9], 0.52 fold; in series [10] it was 2.33 fold.
